Data published in paper doi:10.1101/2022.06.21.496973.

What was measured:
[1] = biological target: taxol-stabilized microtubules (co-sedimentation assays) (porcine) (UniProt P02550); assay: co-sedimentation
[2] = biological target: taxol-stabilized rhodamine-labeled, biotinylated microtubules stored overnight at 23°C or 37°C (damaged MTs) (porcine) (UniProt P02550); assay: TIRF microscopy of eGFP fluorescence on immobilised microtubules
[3] = biological target: 6XHis-688-924 (Abl2 site I fragment) (murine) (UniProt Q4JIM5); assay: BLI
[4] = biological target: 6XHis-1024-1090 (Abl2 site II fragment) (murine) (UniProt Q4JIM5); assay: BLI
[5] = biological target: 6XHis-557-C (Abl2 C-terminal half) (murine) (UniProt Q4JIM5); assay: BLI
[6] = biological target: 6XHis-Abl2 (murine Abl2, residues 74-1182) (murine) (UniProt Q4JIM5); assay: BLI

Row | Substance | Kd [1] | mean fluorescence intensity per µm on MTs stored at 23°C [2] | mean fluorescence intensity per µm on MTs stored at 37°C [2] | mean intensity on borders of damage, MTs stored at 23°C [2] | mean intensity on borders of damage, MTs stored at 37°C [2] | mean intensity on lattices, MTs stored at 23°C [2] | mean intensity on lattices, MTs stored at 37°C [2] | Kd [3] | Kd [4] | Kd [5] | Kd [6]
1 | 6XHis-Abl2Δ688-790 (naturally occurring splice isoform) (from UniProt Q4JIM5 74-1182) (natural protein) | 400 nM |  |  |  |  |  |  |  |  |  | 
2 | Abl2-eGFP (from UniProt Q4JIM5 74-1182) (natural protein) | 320 nM | 0.91 a.u.·µm^-1 | 0.71 a.u.·µm^-1 | 0.39 a.u. | 0.38 a.u. | 0.3 a.u. | 0.28 a.u. |  |  |  | 
3 | porcine brain tubulin dimers (from UniProt P02550 1-451; Q767L7 1-444) (complex) |  |  |  |  |  |  |  | 118 nM | 252 nM | 17 nM | 42 nM
